Biological target: XLF (UniProt Q9H9Q4 1-299)
Assay: NMR titration (2D lineshape, TITAN); apparent KD; NMR buffer (composition, salt and pH not in material); 800 MHz, 298 K stated for relaxation measurements; EMSA buffer not given
Conditions: protein: recombinant; tags: N-terminal 6xHis-TEV; chain copies: 2; blunt

Sequence of XLF (Q9H9Q4 whole entry): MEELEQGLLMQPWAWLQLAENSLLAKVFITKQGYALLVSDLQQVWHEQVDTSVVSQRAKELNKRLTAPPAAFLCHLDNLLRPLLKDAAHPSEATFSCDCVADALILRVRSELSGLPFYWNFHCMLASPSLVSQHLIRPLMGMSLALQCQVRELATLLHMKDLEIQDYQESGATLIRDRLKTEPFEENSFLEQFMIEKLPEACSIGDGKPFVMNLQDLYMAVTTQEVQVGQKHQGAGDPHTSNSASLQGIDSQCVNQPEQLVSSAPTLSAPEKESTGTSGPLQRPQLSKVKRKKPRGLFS

Binder | Kd [µM]
30mer AT-rich DNA (dsDNA) DNA 1: GAAGTAAAATTAAAAAAACAAAAAGAAGCT DNA 2: AGCTTCTTTTTGTTTTTTTAATTTTACTTC | 4.3 ± 0.42
30mer GC-rich DNA (dsDNA) DNA 1: TACCGGGGCGCGAGCCCAGCGCTCCTCCCA DNA 2: TGGGAGGAGCGCTGGGCTCGCGCCCCGGTA | 6.39 ± 0.81
30mer DNA (random) (dsDNA) DNA 1: GATCCCTCTAGATATCGGGCCCTCGATCCG DNA 2: CGGATCGAGGGCCCGATATCTAGAGGGATC | 14.3 ± 0.9

— doi:10.1101/2023.07.12.548668
